Paper doi:10.1101/2024.12.23.630085, “Accurate sequence-to-affinity models for SH2 domains from multi-round peptide binding assays coupled with free-energy regression” (bioRxiv, 2025)
Non-standard residues stand in square brackets, D forms with d. *: point of attachment. FITC = O=C1OC2(c3ccc(O)cc3Oc3cc(O)ccc32)c2ccc(NC(=S)*)cc21; pY = N[C@@H](Cc1ccc(OP(=O)(O)O)cc1)C(=O)O; Ahx = NCCCCCC(=O)O

B1: Syn-F-2 (synthetic) (peptide)
peptide: Ac-QMEKHV[pY]ESVTQG-NH2
SMILES: CSCC[C@H](NC(=O)[C@H](CCC(N)=O)NC(C)=O)C(=O)N[C@@H](CCC(=O)O)C(=O)N[C@@H](CCCCN)C(=O)N[C@@H](Cc1c[nH]cn1)C(=O)N[C@H](C(=O)N[C@@H](Cc1ccc(OP(=O)(O)O)cc1)C(=O)N[C@@H](CCC(=O)O)C(=O)N[C@@H](CO)C(=O)N[C@H](C(=O)N[C@H](C(=O)N[C@@H](CCC(N)=O)C(=O)NCC(N)=O)[C@@H](C)O)C(C)C)C(C)C
notes: source: synthetic peptide (SynPeptide, China)
B2: ACTA1 pY171 (peptide)
peptide: Ac-QPIFEG[pY]ALPHAG-NH2
SMILES: CC[C@H](C)[C@H](NC(=O)[C@@H]1CCCN1C(=O)[C@H](CCC(N)=O)NC(C)=O)C(=O)N[C@@H](Cc1ccccc1)C(=O)N[C@@H](CCC(=O)O)C(=O)NCC(=O)N[C@@H](Cc1ccc(OP(=O)(O)O)cc1)C(=O)N[C@@H](C)C(=O)N[C@@H](CC(C)C)C(=O)N1CCC[C@H]1C(=O)N[C@@H](Cc1c[nH]cn1)C(=O)N[C@@H](C)C(=O)NCC(N)=O
notes: flank added to the 11-residue stretch (surmised: last residue of the library's constant GQSGQ); ACTA1, human, around pY171; flank added to the 11-residue stretch (surmised: first residue of the library's constant GGQSG); also called ACTA1 pTyr Y171; source: synthetic peptide (SynPeptide, China)
B3: CBS pY308 (peptide)
peptide: Ac-QVEGIG[pY]DFIPTG-NH2
SMILES: CC[C@H](C)[C@H](NC(=O)CNC(=O)[C@H](CCC(=O)O)NC(=O)[C@@H](NC(=O)[C@H](CCC(N)=O)NC(C)=O)C(C)C)C(=O)NCC(=O)N[C@@H](Cc1ccc(OP(=O)(O)O)cc1)C(=O)N[C@@H](CC(=O)O)C(=O)N[C@@H](Cc1ccccc1)C(=O)N[C@H](C(=O)N1CCC[C@H]1C(=O)N[C@H](C(=O)NCC(N)=O)[C@@H](C)O)[C@@H](C)CC
notes: flank added to the 11-residue stretch (surmised: last residue of the library's constant GQSGQ); CBS, human, around pY308; flank added to the 11-residue stretch (surmised: first residue of the library's constant GGQSG); source: synthetic peptide (SynPeptide, China)
B4: CBS pY308 G307S (peptide)
peptide: Ac-QVEGIS[pY]DFIPTG-NH2
SMILES: CC[C@H](C)[C@H](NC(=O)CNC(=O)[C@H](CCC(=O)O)NC(=O)[C@@H](NC(=O)[C@H](CCC(N)=O)NC(C)=O)C(C)C)C(=O)N[C@@H](CO)C(=O)N[C@@H](Cc1ccc(OP(=O)(O)O)cc1)C(=O)N[C@@H](CC(=O)O)C(=O)N[C@@H](Cc1ccccc1)C(=O)N[C@H](C(=O)N1CCC[C@H]1C(=O)N[C@H](C(=O)NCC(N)=O)[C@@H](C)O)[C@@H](C)CC
notes: flank added to the 11-residue stretch (surmised: last residue of the library's constant GQSGQ); CBS, human, around pY308, natural variant G307S; flank added to the 11-residue stretch (surmised: first residue of the library's constant GGQSG); source: synthetic peptide (SynPeptide, China)
B5: CLIP2 pY972 (peptide)
peptide: Ac-QSDQRR[pY]SLIDRG-NH2
SMILES: CC[C@H](C)[C@H](NC(=O)[C@H](CC(C)C)NC(=O)[C@H](CO)NC(=O)[C@H](Cc1ccc(OP(=O)(O)O)cc1)NC(=O)[C@H](CCCNC(=N)N)NC(=O)[C@H](CCCNC(=N)N)NC(=O)[C@H](CCC(N)=O)NC(=O)[C@H](CC(=O)O)NC(=O)[C@H](CO)NC(=O)[C@H](CCC(N)=O)NC(C)=O)C(=O)N[C@@H](CC(=O)O)C(=O)N[C@@H](CCCNC(=N)N)C(=O)NCC(N)=O
notes: flank added to the 11-residue stretch (surmised: last residue of the library's constant GQSGQ); CLIP2, human, around pY972; flank added to the 11-residue stretch (surmised: first residue of the library's constant GGQSG); source: synthetic peptide (SynPeptide, China)
B6: CLIP2 pY972 R977P (peptide)
peptide: Ac-QSDQRR[pY]SLIDPG-NH2
SMILES: CC[C@H](C)[C@H](NC(=O)[C@H](CC(C)C)NC(=O)[C@H](CO)NC(=O)[C@H](Cc1ccc(OP(=O)(O)O)cc1)NC(=O)[C@H](CCCNC(=N)N)NC(=O)[C@H](CCCNC(=N)N)NC(=O)[C@H](CCC(N)=O)NC(=O)[C@H](CC(=O)O)NC(=O)[C@H](CO)NC(=O)[C@H](CCC(N)=O)NC(C)=O)C(=O)N[C@@H](CC(=O)O)C(=O)N1CCC[C@H]1C(=O)NCC(N)=O
notes: flank added to the 11-residue stretch (surmised: last residue of the library's constant GQSGQ); CLIP2, human, around pY972, natural variant R977P; flank added to the 11-residue stretch (surmised: first residue of the library's constant GGQSG); source: synthetic peptide (SynPeptide, China)
B7: Syn-F-1 (synthetic) (peptide)
peptide: Ac-QLHVHP[pY]EKVEDG-NH2
SMILES: CC(=O)N[C@@H](CCC(N)=O)C(=O)N[C@@H](CC(C)C)C(=O)N[C@@H](Cc1c[nH]cn1)C(=O)N[C@H](C(=O)N[C@@H](Cc1c[nH]cn1)C(=O)N1CCC[C@H]1C(=O)N[C@@H](Cc1ccc(OP(=O)(O)O)cc1)C(=O)N[C@@H](CCC(=O)O)C(=O)N[C@@H](CCCCN)C(=O)N[C@H](C(=O)N[C@@H](CCC(=O)O)C(=O)N[C@@H](CC(=O)O)C(=O)NCC(N)=O)C(C)C)C(C)C
notes: as for B1
B8: FITC-Ahx-GDG-pY-EEISPLLL-NH2 (peptide)
peptide: {FITC-Ahx}-GDG[pY]EEISPLLL-NH2
SMILES: CC[C@H](C)[C@H](NC(=O)[C@H](CCC(=O)O)NC(=O)[C@H](CCC(=O)O)NC(=O)[C@H](Cc1ccc(OP(=O)(O)O)cc1)NC(=O)CNC(=O)[C@H](CC(=O)O)NC(=O)CNC(=O)CCCCCNC(=S)Nc1ccc2c(c1)C(=O)OC21c2ccc(O)cc2Oc2cc(O)ccc21)C(=O)N[C@@H](CO)C(=O)N1CCC[C@H]1C(=O)N[C@@H](CC(C)C)C(=O)N[C@@H](CC(C)C)C(=O)N[C@@H](CC(C)C)C(N)=O
notes: fluorescent probe, c-Src SH2 consensus peptide; also called c-Src SH2 consensus; source: synthetic peptide (SynPeptide, China)
B9: ACTB pY240 (peptide)
peptide: Ac-QSLEKS[pY]ELPDGG-NH2
SMILES: CC(=O)N[C@@H](CCC(N)=O)C(=O)N[C@@H](CO)C(=O)N[C@@H](CC(C)C)C(=O)N[C@@H](CCC(=O)O)C(=O)N[C@@H](CCCCN)C(=O)N[C@@H](CO)C(=O)N[C@@H](Cc1ccc(OP(=O)(O)O)cc1)C(=O)N[C@@H](CCC(=O)O)C(=O)N[C@@H](CC(C)C)C(=O)N1CCC[C@H]1C(=O)N[C@@H](CC(=O)O)C(=O)NCC(=O)NCC(N)=O
notes: flank added to the 11-residue stretch (surmised: last residue of the library's constant GQSGQ); ACTB, human, around pY240; flank added to the 11-residue stretch (surmised: first residue of the library's constant GGQSG); source: synthetic peptide (SynPeptide, China)
B10: ACTB pY240 P243L (peptide)
peptide: Ac-QSLEKS[pY]ELLDGG-NH2
SMILES: CC(=O)N[C@@H](CCC(N)=O)C(=O)N[C@@H](CO)C(=O)N[C@@H](CC(C)C)C(=O)N[C@@H](CCC(=O)O)C(=O)N[C@@H](CCCCN)C(=O)N[C@@H](CO)C(=O)N[C@@H](Cc1ccc(OP(=O)(O)O)cc1)C(=O)N[C@@H](CCC(=O)O)C(=O)N[C@@H](CC(C)C)C(=O)N[C@@H](CC(C)C)C(=O)N[C@@H](CC(=O)O)C(=O)NCC(=O)NCC(N)=O
notes: flank added to the 11-residue stretch (surmised: last residue of the library's constant GQSGQ); ACTB, human, around pY240, natural variant P243L; flank added to the 11-residue stretch (surmised: first residue of the library's constant GGQSG); source: synthetic peptide (SynPeptide, China)
B11: Syn-G2-7 (synthetic) (peptide)
peptide: Ac-QIEVGT[pY]QNPHNG-NH2
notes: as for B1
B12: Syn-G2-2 (synthetic) (peptide)
peptide: Ac-QHNIHS[pY]INIPPG-NH2
notes: as for B1

What follows are binders tested against T1, Fyn SH2 domain (142-248) (human, UniProt P06241 142-248, biotin (on the AviTag)) (assay: fluorescence polarisation; competition mode; unlabelled phosphopeptide against 0.4 nM FITC-Ahx-GDG-pY-EEISPLLL-NH2 and 4.125 nM Fyn SH2, as printed (Tables S3 and S5)). Details: both partners purified.
T1 construct: SH2 domain of human Fyn kinase, residues 142-248; source: E. coli C43(DE3) with BirA helper plasmid, purified (HisTrap, anion exchange, Ulp1 cleavage, SEC); not shown: His6-SUMO, N-terminal, cleaved; AviTag, C-terminal, kept
T1 sequence (P06241 142-248): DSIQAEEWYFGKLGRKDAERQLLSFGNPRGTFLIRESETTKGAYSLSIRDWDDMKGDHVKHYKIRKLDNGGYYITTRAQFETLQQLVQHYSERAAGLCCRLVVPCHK

Binder | Kd | binding result
B1 | 18.3 nM | 
B2 | 47.3 nM | 
B3 | 126 nM | 
B4 | 185 nM | 
B5 | 78.5 nM | 
B6 | 27 nM | 
B7 | 30.2 nM | 
B8 |  | binds
B9 | 159 nM | 
B10 | 141 nM | 

These binders were tested against T2, Grb2 SH2 domain (UniProt P62993 60-152, biotin (biotinylated SH2 domain of the selection)) (assay: fluorescence polarisation; competition mode; unlabelled phosphopeptide against 30 nM FITC-Ahx-FDDPS(pY)VNVQN and 123 nM Grb2 SH2 (Table S3)). Details: both partners purified.
T2 construct: SH2 domain of the adapter protein Grb2; source: purified
T2 sequence (P62993 60-152): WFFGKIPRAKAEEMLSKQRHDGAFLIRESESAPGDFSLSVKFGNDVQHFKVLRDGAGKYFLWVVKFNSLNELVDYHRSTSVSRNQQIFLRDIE

Binder | Kd
B11 | 3240 nM
B12 | 3.99 nM

The binders below were run against T3, Lyn SH2 domain (121-228) (human, UniProt P07948 121-228, biotin (on the AviTag)) (assay: fluorescence polarisation; competition mode; unlabelled phosphopeptide against 30 nM FITC-Ahx-GDG-pY-EEISPLLL-NH2 and 106.5 nM Lyn SH2 (Table S3)). Details: both partners purified.
T3 construct: source: E. coli C43(DE3) with BirA helper plasmid, purified (HisTrap, anion exchange, Ulp1 cleavage, SEC); not shown: His6-SUMO, N-terminal, cleaved; AviTag, C-terminal, kept
T3 sequence (P07948 121-228): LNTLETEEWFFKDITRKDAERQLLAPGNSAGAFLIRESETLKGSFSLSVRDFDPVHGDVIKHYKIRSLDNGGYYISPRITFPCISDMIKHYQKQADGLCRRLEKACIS

Binder | binding result
B8 | binds
